Values of other authors as cited in publication PMC12571840.

Experiments:
CRHR1 (Homo sapiens) = CRHR1 (Homo sapiens) (UniProt P34998)
CRHR2 (Homo sapiens) = CRHR2 (Homo sapiens) (UniProt Q13324)
UniProt Q13324, sequence (Q13324 20-411): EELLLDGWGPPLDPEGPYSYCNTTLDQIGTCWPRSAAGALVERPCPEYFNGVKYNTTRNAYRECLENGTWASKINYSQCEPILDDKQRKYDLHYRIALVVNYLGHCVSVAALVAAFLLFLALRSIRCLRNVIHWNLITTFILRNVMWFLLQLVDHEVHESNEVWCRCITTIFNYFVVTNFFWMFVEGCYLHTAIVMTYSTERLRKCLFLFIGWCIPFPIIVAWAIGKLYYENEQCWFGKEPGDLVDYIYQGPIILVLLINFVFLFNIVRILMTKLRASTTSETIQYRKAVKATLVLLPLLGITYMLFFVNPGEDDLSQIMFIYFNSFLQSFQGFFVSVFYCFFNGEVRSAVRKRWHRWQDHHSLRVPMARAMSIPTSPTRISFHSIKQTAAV

UniProt P34998, sequence (P34998 24-415): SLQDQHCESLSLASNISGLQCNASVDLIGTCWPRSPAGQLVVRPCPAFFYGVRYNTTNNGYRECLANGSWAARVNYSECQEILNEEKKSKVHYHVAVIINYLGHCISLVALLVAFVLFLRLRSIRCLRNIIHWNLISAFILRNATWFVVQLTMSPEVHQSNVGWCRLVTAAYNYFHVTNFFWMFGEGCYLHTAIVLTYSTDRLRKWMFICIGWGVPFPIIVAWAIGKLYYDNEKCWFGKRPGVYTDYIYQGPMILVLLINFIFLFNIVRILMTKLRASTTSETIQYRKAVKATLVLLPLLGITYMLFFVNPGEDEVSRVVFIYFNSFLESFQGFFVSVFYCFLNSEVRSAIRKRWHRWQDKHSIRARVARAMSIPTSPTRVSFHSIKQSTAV

Ki (CRHR1 (Homo sapiens)): 0.95 nM
Ki (CRHR2 (Homo sapiens)): 13 nM
Substance: CRH (from UniProt P06850)
